The supplement of paper PMC10065799, “High-throughput profiling of sequence recognition by tyrosine kinases and SH2 domains using bacterial peptide display” (eLife, 2023)

What was measured:
Hck = Hck (UniProt P08631); assay: phosphorylation enrichment, bacterial display (enrichment ratio); higher = better substrate or ligand; peptides without Tyr show the background
EPHB2 = EPHB2 (UniProt P29323); assay: as above
Fer (mouse) = assay: as above
Fyn = Fyn (UniProt P06241); assay: as above
EPHB1 = EPHB1 (UniProt P54762); assay: as above
Chain of EPHB1 (P54762 whole entry, looked up): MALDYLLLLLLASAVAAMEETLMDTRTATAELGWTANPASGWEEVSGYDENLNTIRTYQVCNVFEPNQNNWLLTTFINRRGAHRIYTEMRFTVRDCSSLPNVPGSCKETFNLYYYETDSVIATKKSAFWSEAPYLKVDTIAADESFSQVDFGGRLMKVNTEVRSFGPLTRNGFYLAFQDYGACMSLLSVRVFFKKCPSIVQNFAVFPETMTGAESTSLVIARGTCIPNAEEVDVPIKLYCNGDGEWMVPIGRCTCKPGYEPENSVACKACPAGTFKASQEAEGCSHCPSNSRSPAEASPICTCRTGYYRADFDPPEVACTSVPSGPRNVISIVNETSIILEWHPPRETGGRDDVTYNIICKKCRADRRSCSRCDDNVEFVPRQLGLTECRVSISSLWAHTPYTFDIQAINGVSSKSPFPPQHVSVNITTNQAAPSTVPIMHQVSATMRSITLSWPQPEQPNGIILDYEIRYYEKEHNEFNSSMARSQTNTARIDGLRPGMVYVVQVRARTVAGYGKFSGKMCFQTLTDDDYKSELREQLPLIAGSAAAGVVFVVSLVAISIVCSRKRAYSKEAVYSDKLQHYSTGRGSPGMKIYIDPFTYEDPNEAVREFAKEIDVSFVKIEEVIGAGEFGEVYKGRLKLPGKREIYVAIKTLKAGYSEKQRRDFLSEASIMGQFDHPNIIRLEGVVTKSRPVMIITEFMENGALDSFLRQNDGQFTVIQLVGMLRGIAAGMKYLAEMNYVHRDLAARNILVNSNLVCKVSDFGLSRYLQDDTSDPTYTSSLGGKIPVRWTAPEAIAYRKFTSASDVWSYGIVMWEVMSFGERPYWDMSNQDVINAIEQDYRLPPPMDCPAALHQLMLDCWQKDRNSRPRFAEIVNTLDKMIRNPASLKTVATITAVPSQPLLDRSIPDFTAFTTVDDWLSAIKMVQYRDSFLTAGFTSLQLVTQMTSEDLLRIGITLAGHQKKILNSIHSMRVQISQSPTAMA

Fes = Fes (UniProt P07332); assay: as above
AncSZ = assay: as above
FGFR1 = FGFR1 (UniProt P11362); assay: as above
Chain of FGFR1 (P11362 whole entry, looked up): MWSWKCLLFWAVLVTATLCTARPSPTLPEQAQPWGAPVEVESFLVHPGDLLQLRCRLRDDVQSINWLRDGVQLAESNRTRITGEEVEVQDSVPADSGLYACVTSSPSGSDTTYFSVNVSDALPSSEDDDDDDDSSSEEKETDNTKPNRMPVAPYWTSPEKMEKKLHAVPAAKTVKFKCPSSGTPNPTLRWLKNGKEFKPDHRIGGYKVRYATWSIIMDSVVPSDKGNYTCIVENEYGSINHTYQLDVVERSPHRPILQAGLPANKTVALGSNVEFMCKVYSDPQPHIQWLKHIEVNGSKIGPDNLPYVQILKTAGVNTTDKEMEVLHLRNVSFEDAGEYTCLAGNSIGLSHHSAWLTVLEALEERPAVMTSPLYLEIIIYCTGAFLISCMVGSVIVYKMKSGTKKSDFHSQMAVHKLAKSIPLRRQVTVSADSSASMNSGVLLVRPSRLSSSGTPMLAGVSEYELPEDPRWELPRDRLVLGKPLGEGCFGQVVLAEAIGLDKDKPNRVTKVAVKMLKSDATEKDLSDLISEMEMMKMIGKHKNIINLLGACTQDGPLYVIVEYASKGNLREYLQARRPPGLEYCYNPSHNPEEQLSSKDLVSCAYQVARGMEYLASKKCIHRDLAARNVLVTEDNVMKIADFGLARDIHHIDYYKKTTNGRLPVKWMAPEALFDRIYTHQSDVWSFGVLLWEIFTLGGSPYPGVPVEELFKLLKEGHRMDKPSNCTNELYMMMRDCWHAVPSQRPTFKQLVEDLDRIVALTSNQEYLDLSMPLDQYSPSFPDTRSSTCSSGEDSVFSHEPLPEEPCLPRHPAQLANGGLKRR

c-Abl (mouse) = assay: as above
FGFR3 = FGFR3 (UniProt P22607); assay: as above
Jak2 = Jak2 (UniProt O60674); assay: as above
Chain of Jak2 (O60674 whole entry, looked up): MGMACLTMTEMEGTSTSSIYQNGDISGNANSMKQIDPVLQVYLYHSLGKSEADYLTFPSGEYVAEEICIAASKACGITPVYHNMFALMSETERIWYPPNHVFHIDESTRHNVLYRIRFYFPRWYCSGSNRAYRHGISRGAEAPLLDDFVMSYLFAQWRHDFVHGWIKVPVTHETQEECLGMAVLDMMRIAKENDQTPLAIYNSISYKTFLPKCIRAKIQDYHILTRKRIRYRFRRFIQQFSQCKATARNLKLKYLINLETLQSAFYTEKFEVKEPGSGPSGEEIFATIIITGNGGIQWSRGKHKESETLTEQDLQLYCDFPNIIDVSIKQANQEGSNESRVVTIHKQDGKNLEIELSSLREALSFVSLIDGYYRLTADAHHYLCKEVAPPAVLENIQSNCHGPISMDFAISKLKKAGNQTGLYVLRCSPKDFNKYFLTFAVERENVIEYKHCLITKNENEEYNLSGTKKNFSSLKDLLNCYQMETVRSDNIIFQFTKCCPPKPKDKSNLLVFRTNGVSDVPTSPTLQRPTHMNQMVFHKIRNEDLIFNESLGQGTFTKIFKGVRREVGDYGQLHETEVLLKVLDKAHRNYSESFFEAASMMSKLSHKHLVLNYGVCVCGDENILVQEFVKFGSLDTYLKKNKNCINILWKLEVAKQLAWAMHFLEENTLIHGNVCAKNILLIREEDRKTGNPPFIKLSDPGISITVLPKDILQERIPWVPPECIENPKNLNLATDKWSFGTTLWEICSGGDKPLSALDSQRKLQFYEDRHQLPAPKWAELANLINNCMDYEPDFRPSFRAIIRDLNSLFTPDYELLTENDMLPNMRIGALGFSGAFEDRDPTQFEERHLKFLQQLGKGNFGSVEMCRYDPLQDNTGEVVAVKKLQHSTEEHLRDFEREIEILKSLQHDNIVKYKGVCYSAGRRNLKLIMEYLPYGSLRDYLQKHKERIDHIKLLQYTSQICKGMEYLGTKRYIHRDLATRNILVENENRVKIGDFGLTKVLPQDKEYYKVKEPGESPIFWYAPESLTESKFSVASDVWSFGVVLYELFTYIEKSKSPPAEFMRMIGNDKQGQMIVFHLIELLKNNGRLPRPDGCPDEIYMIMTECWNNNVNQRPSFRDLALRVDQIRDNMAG

c-Src = assay: as above
MERTK = MERTK (UniProt Q12866); assay: as above
Chain of MERTK (Q12866 whole entry, looked up): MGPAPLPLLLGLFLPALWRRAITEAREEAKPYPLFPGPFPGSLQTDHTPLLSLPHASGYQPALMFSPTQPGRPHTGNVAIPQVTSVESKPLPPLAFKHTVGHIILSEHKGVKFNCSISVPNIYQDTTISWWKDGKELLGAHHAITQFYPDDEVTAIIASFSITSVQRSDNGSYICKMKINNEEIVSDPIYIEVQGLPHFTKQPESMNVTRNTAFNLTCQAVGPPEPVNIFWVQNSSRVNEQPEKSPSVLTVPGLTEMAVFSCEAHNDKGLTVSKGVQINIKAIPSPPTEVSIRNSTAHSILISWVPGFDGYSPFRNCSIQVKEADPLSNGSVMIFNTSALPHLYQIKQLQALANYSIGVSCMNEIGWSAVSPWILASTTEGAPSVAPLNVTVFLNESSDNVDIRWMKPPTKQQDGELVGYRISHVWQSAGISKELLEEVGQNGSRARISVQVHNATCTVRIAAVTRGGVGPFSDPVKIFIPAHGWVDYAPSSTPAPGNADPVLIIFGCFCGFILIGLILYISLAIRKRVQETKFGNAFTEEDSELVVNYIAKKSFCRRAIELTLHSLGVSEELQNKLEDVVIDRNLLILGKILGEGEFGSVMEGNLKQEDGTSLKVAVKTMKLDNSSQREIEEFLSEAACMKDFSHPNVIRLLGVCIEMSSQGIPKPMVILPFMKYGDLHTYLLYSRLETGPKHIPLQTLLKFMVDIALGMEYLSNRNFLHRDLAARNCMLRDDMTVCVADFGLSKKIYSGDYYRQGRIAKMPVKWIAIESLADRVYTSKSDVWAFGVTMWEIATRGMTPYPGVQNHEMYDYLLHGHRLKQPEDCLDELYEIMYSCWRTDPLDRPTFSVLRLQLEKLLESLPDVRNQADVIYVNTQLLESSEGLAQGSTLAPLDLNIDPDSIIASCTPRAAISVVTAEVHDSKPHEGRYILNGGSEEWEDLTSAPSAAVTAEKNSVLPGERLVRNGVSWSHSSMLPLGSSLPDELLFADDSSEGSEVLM

c-Src SH2 = assay: SH2 binding enrichment of the phosphorylated peptide, bacterial display (enrichment ratio); higher = better substrate or ligand; peptides without Tyr show the background
SHP2-C SH2 = assay: as above
Grb2 SH2 = Grb2 SH2 (UniProt P62993); assay: as above
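Wherever SH2 binding enrichment of the phosphorylated peptide, bacterial display is given: peptide library displayed on the E. coli surface as eCPX fusions, selected cells deep-sequenced, score is each peptide's frequency after selection divided by its frequency in the input.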
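Wherever phosphorylation enrichment, bacterial display is given: 11-residue human phosphosite peptides and single-mutation variants displayed on the E. coli surface, counted by deep sequencing, each peptide's frequency after selection divided by its frequency in the unselected input library; frequency after pTyr selection over input frequency; kinase dosed for 20-30% of maximal phosphorylation in three min.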

Chain of EPHB2 (P29323 whole entry, looked up): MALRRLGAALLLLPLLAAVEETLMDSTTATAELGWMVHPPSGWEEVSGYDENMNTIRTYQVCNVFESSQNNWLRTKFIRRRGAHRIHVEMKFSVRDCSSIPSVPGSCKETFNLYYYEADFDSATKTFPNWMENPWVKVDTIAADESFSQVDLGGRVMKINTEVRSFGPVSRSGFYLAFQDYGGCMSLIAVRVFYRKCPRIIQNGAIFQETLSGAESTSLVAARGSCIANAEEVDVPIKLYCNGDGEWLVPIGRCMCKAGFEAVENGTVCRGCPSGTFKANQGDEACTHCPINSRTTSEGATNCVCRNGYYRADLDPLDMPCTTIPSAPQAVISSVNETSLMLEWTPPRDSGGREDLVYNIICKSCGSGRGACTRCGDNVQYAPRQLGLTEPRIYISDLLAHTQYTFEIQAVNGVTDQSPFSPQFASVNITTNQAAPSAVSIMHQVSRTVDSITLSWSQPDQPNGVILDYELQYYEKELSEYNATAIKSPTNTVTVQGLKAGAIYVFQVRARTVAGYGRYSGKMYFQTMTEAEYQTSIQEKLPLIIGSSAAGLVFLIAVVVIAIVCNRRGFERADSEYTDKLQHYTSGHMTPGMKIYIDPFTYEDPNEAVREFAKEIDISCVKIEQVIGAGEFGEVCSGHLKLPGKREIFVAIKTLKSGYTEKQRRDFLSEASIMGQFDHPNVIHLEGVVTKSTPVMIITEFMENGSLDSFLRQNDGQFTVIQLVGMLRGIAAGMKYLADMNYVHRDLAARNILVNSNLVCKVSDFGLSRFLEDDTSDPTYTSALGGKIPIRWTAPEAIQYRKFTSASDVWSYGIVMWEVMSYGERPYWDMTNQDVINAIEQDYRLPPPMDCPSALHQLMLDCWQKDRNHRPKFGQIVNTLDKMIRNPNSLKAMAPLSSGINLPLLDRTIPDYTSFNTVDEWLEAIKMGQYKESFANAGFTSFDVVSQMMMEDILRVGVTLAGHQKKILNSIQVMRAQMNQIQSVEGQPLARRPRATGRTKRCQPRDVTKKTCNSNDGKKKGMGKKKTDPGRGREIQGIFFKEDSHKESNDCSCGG

Row | Sequence | phosphorylation enrichment (Hck) | phosphorylation enrichment (EPHB2) | phosphorylation enrichment (Fer (mouse)) | phosphorylation enrichment (Fyn) | phosphorylation enrichment (EPHB1) | phosphorylation enrichment (Fes) | phosphorylation enrichment (AncSZ) | phosphorylation enrichment (FGFR1) | phosphorylation enrichment (c-Abl (mouse)) | phosphorylation enrichment (FGFR3) | phosphorylation enrichment (Jak2) | phosphorylation enrichment (c-Src) | phosphorylation enrichment (MERTK) | SH2 binding enrichment (c-Src SH2) | SH2 binding enrichment (SHP2-C SH2) | SH2 binding enrichment (Grb2 SH2)
1 | CHRQLYHKCTH [F12_Y58_Y53C] | 0.471 | 0.461 | 0.491 | 0.402 | 0.447 | 0.796 | 0.497 | 0.494 | 0.599 | 0.576 | 0.667 | 0.457 | 0.543 | 1.5 | 1.3 | 1.53
2 | CLSHCYFSQIR [MCM3AP_Y873_L870S] | 0.363 | 0.497 | 0.388 | 0.354 | 0.41 | 0.758 | 0.727 | 0.573 | 0.484 | 0.607 | 0.623 | 0.432 | 0.485 | 1.23 | 1.15 | 1.22
3 | CQAHGYFCQLI [STK11_Y156] | 0.436 | 0.546 | 0.402 | 0.405 | 0.413 | 0.836 | 0.873 | 0.479 | 0.514 | 0.609 | 0.751 | 0.428 | 0.407 | 0.984 | 1.17 | 1.2
4 | CQKRKYIEIDS [SDAD1_Y580_S575C] | 0.48 | 0.505 | 0.431 | 0.485 | 0.513 | 0.814 | 0.657 | 0.55 | 0.446 | 0.6 | 0.616 | 0.479 | 0.38 | 2.53 | 0.892 | 1.03
5 | CRIELYRVVES [IGFBP1_Y181] | 0.574 | 0.68 | 0.537 | 0.476 | 0.989 | 1.29 | 1.2 | 0.545 | 0.759 | 0.887 | 1.11 | 0.437 | 0.46 | 0.538 | 0.653 | 0.819
6 | CRWKRYQCSHD [GDPD5_Y30_R32C] | 0.529 | 0.493 | 0.425 | 0.52 | 0.458 | 0.666 | 0.559 | 0.488 | 0.41 | 0.562 | 0.612 | 0.448 | 0.384 | 0.494 | 0.583 | 0.656
7 | CSPLLYKVIMS [OR8D4_Y132_R133K] | 0.566 | 0.648 | 0.611 | 0.507 | 0.693 | 1.21 | 1.06 | 0.518 | 0.955 | 0.819 | 0.989 | 0.445 | 0.6 | 0.488 | 0.635 | 0.882
8 | CTLTHYKSAVK [ASNS_Y555_R550C] | 0.518 | 0.431 | 0.51 | 0.387 | 0.564 | 0.749 | 0.807 | 0.514 | 0.529 | 0.529 | 0.689 | 0.408 | 0.428 | 0.585 | 0.682 | 0.942
9 | CTSIHYNYMCN [TP53_Y234_T231S] | 0.514 | 0.63 | 0.676 | 0.42 | 0.99 | 0.805 | 0.842 | 0.67 | 0.535 | 0.591 | 0.733 | 0.5 | 0.448 | 6.03 | 2.73 | 1.2
10 | CTTIHKNYMCN [TP53_Y234_Y234K] | 0.409 | 0.503 | 0.406 | 0.395 | 0.515 | 0.792 | 0.733 | 0.499 | 0.603 | 0.56 | 0.702 | 0.404 | 0.484 | 0.866 | 1.16 | 1.05
11 | CTTIHSNFMCN [TP53_Y234_Y234S_YF] | 0.43 | 0.555 | 0.429 | 0.416 | 0.448 | 0.832 | 0.695 | 0.508 | 0.507 | 0.55 | 0.729 | 0.454 | 0.405 | 0.988 | 0.914 | 0.924
12 | CTTIHYNFMCD [TP53_Y234_N239D_YF] | 0.481 | 0.499 | 0.49 | 0.442 | 0.545 | 1.11 | 0.985 | 0.399 | 0.768 | 0.674 | 1.03 | 0.538 | 0.424 | 3.31 | 1.85 | 1.74
13 | CTTIHYNFMCH [TP53_Y234_N239H_YF] | 0.441 | 0.547 | 0.478 | 0.533 | 0.558 | 0.97 | 0.866 | 0.507 | 0.543 | 0.552 | 0.75 | 0.471 | 0.444 | 1.75 | 1.92 | 1.73
14 | CTTIHYNFMSN [TP53_Y234_C238S_YF] | 0.545 | 0.58 | 0.562 | 0.437 | 0.621 | 1.24 | 1.12 | 0.561 | 0.833 | 0.745 | 1.07 | 0.483 | 0.527 | 0.743 | 0.835 | 0.851
15 | CTTIHYNYMCN [TP53_Y234] | 0.482 | 0.696 | 0.557 | 0.453 | 0.762 | 0.903 | 0.853 | 0.539 | 0.471 | 0.692 | 0.661 | 0.469 | 0.485 | 4.14 | 2.41 | 1.25
16 | CTTIQYNYMCN [TP53_Y234_H233Q] | 0.551 | 0.671 | 0.445 | 0.555 | 0.614 | 0.955 | 0.927 | 0.556 | 0.493 | 0.692 | 0.751 | 0.441 | 0.482 | 4.11 | 2.31 | 1.37
17 | CYVYYYSYLLK [PTEN_Y178_R173C] | 0.949 | 0.792 | 0.669 | 0.734 | 1.15 | 1.81 | 1.5 | 1.8 | 1.66 | 1.79 | 1.53 | 1.47 | 1.17 | 0.68 | 0.543 | 0.864
